Laboratory results as given in article PMC8931381 (Proceedings of the National Academy of Sciences of the …, 2022).
Where two headings read alike, the source gives them in different places.

Legend:
[1] = biological target: the molecule itself; experiment: cryo-EM structure
[2] = biological target: the molecule itself; experiment: cryo-EM structure; remark: listed apart in the source

B1: FliL of Borrelia burgdorferi (BbFliL) (natural protein, UniProt Q57442 1-178, looked up)
chain: MPNKDDDNLDMGDSNVSRKGGLLPDIIIKILQILAIGIFTVAIMIIVSYFVSKMVVSQSGAPSDFPVFSNEYLGKPPMLIWYESIDEIRGNTLDVPPKTFVVKLALGYAENNVNILNELGRQKVRLKDIIREYFSQRTGQEIKNESQIKAEIKARINSILRNGEIKEIALTQIDIFDM
[1]
  stoichiometry N: 4
[2]
  stoichiometry N: 10
